Experimental data reported in publication PMC11802746 (Nature Communications, 2025).

Target: GST-MST3 (human, UniProt Q9Y6E0-2 1-431)
Assay: pull-down

B1: His-SUMO-tagged PGAM5 (25-289) (domain or fragment, human, UniProt Q96HS1 25-289, looked up)
chain: AVAVGKPRAGGDAEPRPAEPPAWAGGARPGPGVWDPNWDRREPLSLINVRKRNVESGEEELASKLDHYKAKATRHIFLIRHSQYHVDGSLEKDRTLTPLGREQAELTGLRLASLGLKFNKIVHSSMTRAIETTDIISRHLPGVCKVSTDLLREGAPIEPDPPVSHWKPEAVQYYEDGARIEAAFRNYIHRADARQEEDSYEIFICHANVIRYIVCRALQFPPEGWLRLSLNNGSITHLVIRPNGRVALRTLGDTGFMPPDKITRS
binding result: binds
